In the assay the target is endogenously expressed Gαi (human (endogenous in HEK293)) (UniProt P63096). Kind of assay: linear dichroism.
Sequence of UniProt P63096 (P63096 whole entry): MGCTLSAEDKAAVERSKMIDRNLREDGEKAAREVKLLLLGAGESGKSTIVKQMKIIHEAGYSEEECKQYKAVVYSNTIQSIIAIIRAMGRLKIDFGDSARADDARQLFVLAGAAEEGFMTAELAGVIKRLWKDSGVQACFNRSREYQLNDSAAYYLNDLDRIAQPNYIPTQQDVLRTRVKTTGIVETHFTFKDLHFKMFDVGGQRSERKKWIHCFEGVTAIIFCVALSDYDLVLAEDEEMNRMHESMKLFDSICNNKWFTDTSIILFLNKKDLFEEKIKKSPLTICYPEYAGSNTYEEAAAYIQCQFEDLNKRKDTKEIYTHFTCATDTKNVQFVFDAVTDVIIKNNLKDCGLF

KB1753-cpmTurq2-HRas displayed a percent of the FLIP molecules bound of 15%.
Next, KB1753-eGFP-HRas: 15%.

The values are drawn from article PMC12810643.
